Experimental data: PMC4131482, “The significance of the F variant of alpha-1-antitrypsin and unique case report of a PiFF homozygote” (BMC Pulmonary Medicine, 2014)

B1: proteinase 3 (enzyme, UniProt P24158 28-248, looked up)
chain: IVGGHEAQPHSRPYMASLQMRGNPGSHFCGGTLIHPSFVLTAAHCLRDIPQRLVNVVLGAHNVRTQEPTQQHFSVAQVFLNNYDAENKLNDVLLIQLSSPANLSASVATVQLPQQDQPVPHGTQCLAMGWGRVGAHDPPAQVLQELNVTVVTFFCRPHNICTFVPRRKAGICFGDSGGPLICDGIIQGIDSFVIWGCATRLFPDFFTRVALYVDWIRSTLR
notes: proteinase 3 (PR3), bought pure enzyme, active site titrated; also called PR3; pure PR3; source: bought: Merck, pure

Assays:
proteinase 3 [1] = molecular target: proteinase 3 (UniProt P24158); experiment: time course of enzyme inhibition (residual activity, second order association rate constant); methylamine-treated serum A1AT and PR3, equimolar, 1 nM each, 23°C, plate wells of 150 uL; residual PR3 activity at 1-5 min with the FRET substrate Abz-VAD-norV-ADRQ-EDDnp
proteinase 3 [2] = molecular target: proteinase 3 (UniProt P24158); experiment: time course of enzyme inhibition (residual activity, second order association rate constant); purified M or Z variant A1AT and PR3, equimolar, 1 nM each, 23°C, plate wells of 150 uL; residual PR3 activity at 1-5 min with the FRET substrate Abz-VAD-norV-ADRQ-EDDnp
[3] = molecular target: T1, F variant alpha-1-antitrypsin (human (endogenous in serum), UniProt P01009 25-418, arginine at residue 223 by cysteine); experiment: time course of enzyme inhibition (residual activity, second order association rate constant); methylamine-treated serum A1AT and PR3, equimolar, 1 nM each, 23°C, plate wells of 150 uL; residual PR3 activity at 1-5 min with the FRET substrate Abz-VAD-norV-ADRQ-EDDnp; conditions: one partner purified
T1 construct: alpha-1-antitrypsin (A1AT), F variant, human serum; arginine at residue 223 replaced by cysteine; also called F variant A1AT; F A1AT; source: endogenous, serum of a PiFF homozygote, treated with methylamine

[4] = molecular target: T2, M variant alpha-1-antitrypsin (human (endogenous in serum), UniProt P01009 25-418); experiment: as above; conditions: one partner purified
T2 construct: alpha-1-antitrypsin (A1AT), normal M variant, human serum or bought pure protein; the assays tell them apart; also called M variant A1AT; pure M variant A1AT; source: endogenous, serum of healthy PiMM controls, treated with methylamine; also bought: Athens Research and Technology, pure

[5] = molecular target: T2, M variant alpha-1-antitrypsin; experiment: time course of enzyme inhibition (residual activity, second order association rate constant); purified M or Z variant A1AT and PR3, equimolar, 1 nM each, 23°C, plate wells of 150 uL; residual PR3 activity at 1-5 min with the FRET substrate Abz-VAD-norV-ADRQ-EDDnp; conditions: both partners purified

T2 sequence (P01009 25-418, change not shown): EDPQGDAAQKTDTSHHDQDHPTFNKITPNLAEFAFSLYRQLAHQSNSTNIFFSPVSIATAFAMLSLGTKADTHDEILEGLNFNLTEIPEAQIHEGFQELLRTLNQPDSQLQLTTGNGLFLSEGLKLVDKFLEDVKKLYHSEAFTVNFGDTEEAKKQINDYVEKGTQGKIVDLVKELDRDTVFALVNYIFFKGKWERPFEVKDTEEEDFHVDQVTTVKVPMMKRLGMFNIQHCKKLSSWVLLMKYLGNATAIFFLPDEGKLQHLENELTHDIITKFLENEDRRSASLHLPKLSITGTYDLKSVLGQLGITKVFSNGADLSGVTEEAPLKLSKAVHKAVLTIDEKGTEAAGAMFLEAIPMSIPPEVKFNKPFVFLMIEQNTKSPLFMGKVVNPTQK
T1 sequence (P01009 other isoform, or with tags, fused parts or gaps with the stated changes): as the sequence (P01009 25-418, change not shown) above, with R223C counted along it

| Molecule | kon (proteinase 3 [1]) [M⁻¹ s⁻¹] | kon (proteinase 3 [2]) [M⁻¹ s⁻¹] | kon [3] [M⁻¹ s⁻¹] | kon [4] [M⁻¹ s⁻¹] | kon [5] [M⁻¹ s⁻¹] |
| --- | --- | --- | --- | --- | --- |
| S variant alpha-1-antitrypsin (from UniProt P01009 25-418) (natural protein) | 951000 | – | – | – | – |
| Z variant alpha-1-antitrypsin (from UniProt P01009 25-418) (natural protein) | 1.1e+06 | 1.03e+06 | – | – | – |
| B1 | – | – | 1.06e+06 | 924000 | 983000 |
